Consider 19 molecules from patent publication US20200255508A1.

Assay [1] deals with cynomolgus monkey DLL4 extracellular domain (cynomolgus monkey). Kind of assay: Biacore SPR.
In assay [2] the target is cyno DLL4-his (cynomolgus monkey). Kind of assay: ELISA on DLL4-his.

B1: E9.4 (antibody, V domains shown)
VH: EVQLQESGPGLVKPSETLSLTCTVSGGSISSSSYYWGWIRQPPGKGLEWIGDIYYTGSTYYNPSLKSRVTISVDTSKNQFSLKLSSVTAADTAVYYCARYDVSLGGSSDHWGQGTLVTVSS
VL: SYELTQPPSVSVSPGQTASITCSGQRLGDKYASWYQQKPGQSPVLVIYEDSKRPSGIPERFSGSNSGDTATLTISGTQPMDEADYYCQAWDRDTGVFGYGTKVTVL
As usually defined, the Kd is a measure of binding affinity in units of concentration. A word on the koff: it is the first-order rate constant of dissociation. Usually kon stands for a measure of how fast the partners come together. In assay [1], B1 gave a dissociation constant Kd of 0.25 nM, a koff of 3.44e-05 s⁻¹ and a kon of 137000 M⁻¹ s⁻¹.

B2: E9.48 (antibody, V domains shown)
VH: EVQLQESGPGLVKPSETLSLTCTVSGGSISSSGYYWGWIRQPPGKGLEWIGDINYRGSTYYNPSLKSRVTISVDTSKNQFSLKLSSVTAADTAVYYCAREDVILRGGSDYWGQGTLVTVSS
VL: SYELTQPPSVSVSPGQTASITCSGQRLGDKYASWYQQKPGQSPVLVIYEDSKRPSGIPERFSGSNSGDTATLTISGTQPMDEADYYCQAWDRDTGVFGYGTKVTVL
On to B2, for which, in assay [1], the Kd is 4.71 nM, the off-rate (koff) turned out to be 7.91e-05 s⁻¹ and the kon is 16800 M⁻¹ s⁻¹.

B3: E9.11 (antibody, V domains shown)
VH: EVQLQESGPGLVKPSETLSLTCTVSGGSISSSSYYWGWIRQPPGKGLEWIGDIYYTGSTYYNPSLKSRVTISVDTSKNQFSLKLSSVTAADTAVYYCAREAVPLGGGSDYWGQGTLVTVSS
VL: SYELTQPPSVSVSPGQTASITCSGQRLGDKYASWYQQKPGQSPVLVIYEDSKRPSGIPERFSGSNSGDTATLTISGTQPMDEADYYCQAWDRDTGVFGYGTKVTVL
As for B3, in assay [1], the dissociation constant Kd is 0.17 nM, the off-rate (koff) was 8.9e-06 s⁻¹ and the kon was 53100 M⁻¹ s⁻¹.

B4: E9-SE4 (antibody, V domains shown)
VH: EVQLQESGPGLVKPSETLSLTCTVSGGSISSSSYYWGWIRQPPGKGLEWIGDIYYTGSTYYNPSLKSRVTISVDTSKNQFSLKLSSVTAADTAVYYCAREDVILRGGSDYWGQGTLVTVSS
VL: LYVLTQPPSVSVSPGQTASITCSGQRLGDKYASWYQQKPGQSPVLVIYEDSKRPSGIPERFSGSNSGDTATLTISGTQTMDEADYLCQAWDRDTGVFGGGTKVTVLG
In general, EC50 refers to the midpoint of the concentration-response curve. In the case of B4, the Kd in assay [1] was 3.92 nM. In assay [2], this molecule had a half-maximal effective concentration (EC50) of 0.14 nM.

B5: E9.65 (antibody, V domains shown)
VH: EVQLQESGPGLVKPSETLSLTCTVSGGSIRNSRYHWGWIRQPPGKGLEWIGDIYYTGSTYYNPSLKGRVTISVDTSKNQFSLKLSSVTAADTAVYYCAREDVILRGGSDYWGQGTLVTVSS
VL: SYELTQPPSVSVSPGQTASITCSGQRLGDKYASWYQQKPGQSPVLVIYEDSKRPSGIPERFSGSNSGDTATLTISGTQPMDEADYYCQAWDRDTGVFGYGTKVTVL
With B5, in assay [1], the dissociation constant (Kd) amounted to 12.9 nM, the dissociation rate constant (koff) worked out at 0.000414 s⁻¹ and the kon turned out to be 32100 M⁻¹ s⁻¹.

B6: E9.38 (antibody, V domains shown)
VH: EVQLQESGPGLVKPSETLSLTCTVSGGSISSSSYYWGWIRQPPGKGLEWIGDIYYTGSTYYNPSLKSRVTISVDTSKNQFSLKLSSVTAADTAVYYCAREDVILRGGSDYWGQGTLVTVSS
VL: SYELTQPPSVSVSPGQTASITCSGQRLGDKYVSWYQQKPGQSPVLVIYEDSKRPSGIPERFSGSNSGDTATLTISGTQPMDEADYYCQAWDRDVGVFGSGTKVTVL
In assay [1], B6 registered an equilibrium dissociation constant (Kd) of 1.44 nM, a koff of 3.47e-05 s⁻¹ and an on-rate constant (kon) of 24200 M⁻¹ s⁻¹.

B7: E9.18 (antibody, V domains shown)
VH: EVQLQESGPGLVKPSETLSLTCTVSGGSISSSGYYWGWIRQPPGKGLEWIGDINYAGSTYYNPSLKSRVTISVDTSKNQFSLKLSSVTAADTAVYYCAREDVILRGGSDYWGQGTLVTVSS
VL: SYELTQPPSVSVSPGQTASITCSGQRLGDKYASWYQQKPGQSPVLVIYEDSKRPSGIPERFSGSNSGDTATLTISGTQPMDEADYYCQAWDRDTGVFGYGTKVTVL
As to B7, in assay [1], the dissociation constant (Kd) is 1 nM, the koff was 2.63e-05 s⁻¹ and the kon was 26300 M⁻¹ s⁻¹.

B8: E9.13 (antibody, V domains shown)
VH: EVQLQESGPGLVKPSETLSLTCTVSGGSISSSSYYWGWIRQPPGKGLEWIGDIYYTGSTYYNPSLKSRVTISVDTSKNQFSLKLSSVTAADTAVYYCAREDVILRGGSDYWGQGTLVTVSS
VL: SYELTQPPSVSVSPGQTASITCSGDTLGDKYVSWYQQKPGQSPVLVIYEDSERPSGIPERFSGSNSGDTATLTISGTQPMDEADYYCQAWDSETGVFGSGTKVTVL
For the molecule B8, in assay [1], the Kd was determined as 0.63 nM, the koff is 4.95e-05 s⁻¹ and the kon worked out at 79200 M⁻¹ s⁻¹.

B9: E9.16 (antibody, V domains shown)
VH: EVQLQESGPGLVKPSETLSLTCTVSGGSISSSSYYWGWIRQPPGKGLEWIGDIYYTGSTYYNPSLKSRVTISVDTSKNQFSLKLSSVTAADTAVYYCAREDVILRGGSDYWGQGTLVTVSS
VL: SYELTQPPSVSVSPGQTASITCSGERLGDKYVSWYQQKPGQSPVLVIYEDFKRPSGIPERFSGSNSGDTATLTISGTQPMDEADYYCQAWDRDTGVFGYGTKVTVL
With B9, in assay [1], the equilibrium dissociation constant (Kd) is 1.52 nM, the off-rate constant (koff) is 3.79e-05 s⁻¹ and the kon came out at 24900 M⁻¹ s⁻¹.

B10: E9.14 (antibody, V domains shown)
VH: EVQLQESGPGLVKPSETLSLTCTVSGGSISNSRYHWGWIRQSPGKGLEWIGDIYYTGSTYYNPSLKSRVTISVDTSKNQFSLKLSSVTAEDTAVYYCAREDVILRGGSDYWGQGTLVTVSS
VL: SYELTQPPSVSVSPGQTASITCSGQRLGDKYASWYQQKPGQSPVLVIYEDSKRPSGIPERFSGSNSGDTATLTISGTQPMDEADYYCQAWDRDTGVFGYGTKVTVL
In assay [1], B10 gave a dissociation constant Kd of 6.75 nM, an off-rate (koff) of 0.000386 s⁻¹ and an association rate constant (kon) of 57200 M⁻¹ s⁻¹.

B11: E9.17 (antibody, V domains shown)
VH: EVQLQESGPGLVKPSETLSLTCTVSGGSISSSSYYWGWIRQPPGKGLEWIGDIYYTGSTYYNPSLKSRVTISVDTSKNQFSLKLSSVTAADTAVYYCAREEAILGGGSDYWGQGTLVTVSS
VL: SYELTQPPSVSVSPGQTASITCSGQRLGDKYASWYQQKPGQSPVLVIYEDSKRPSGIPERFSGSNSGDTATLTISGTQPMDEADYYCQAWDRDTGVFGYGTKVTVL
In assay [1], B11 showed an equilibrium dissociation constant (Kd) of 0.16 nM, an off-rate (koff) of 1.23e-05 s⁻¹ and an on-rate constant (kon) of 75100 M⁻¹ s⁻¹.

B12: E9-SE3 (antibody, V domains shown)
VH: EVQLQESGPGLVKPGETLSLTCTVSGGSISSSSYYWGWIRQAPGKGLEWIGDIYYTGSTYYNPSLKSRVTISVDTSKNQFYLKLSSVRAEDTAVYYCAREDVILRGGSDYWGQGTLVTVSS
VL: SYELTQPPSVSVSPGQTASITCSGQRLGDKYASWYQQKPGQSPVLVIYEDSKRPSGIPERFSGSNSGDTATLTISGTQPMDEADYYCQAWDRDTGVFGYGTRVTVLG
In turn, B12 showed a Kd in assay [1] of 3.42 nM. The molecule also came in with an EC50 in assay [2] of 0.14 nM.

B13: E9.22 (antibody, V domains shown)
VH: EVQLQESGPGLVKPSETLSLTCTVSGGSISNSRYHWGWIRQPPGKGLEWIGDIYYTGSTYYNPSLKGRVTISVDTSKNQFSLKLSSVTAADTAVYYCAREDVILRGGSDYWGQGTLVTVSS
VL: SYELTQPPSVSVSPGQTASITCSGQRLGDKYASWYQQKPGQSPVLVIYEDSKRPSGIPERFSGSNSGDTATLTISGTQPMDEADYYCQAWDRDTGVFGYGTKVTVL
In assay [1], B13 had a Kd of 6.26 nM, a koff of 0.000352 s⁻¹ and an association rate constant (kon) of 56200 M⁻¹ s⁻¹.

B14: E9.66 (antibody, V domains shown)
VH: EVQLQESGPGLVKPSETLSLTCTVSGGSISSSSYYWGWIRQPPGKGLEWIGDIYYTGSTYYNPSLKSRVTISVDTSKNQFSLKLSSVTAADTAVYYCAREGVPLGGGADKWGQGTLVTVSS
VL: SYELTQPPSVSVSPGQTASITCSGQRLGDKYASWYQQKPGQSPVLVIYEDSKRPSGIPERFSGSNSGDTATLTISGTQPMDEADYYCQAWDRDTGVFGYGTKVTVL
With B14, in assay [1], the dissociation constant (Kd) was determined as 0.14 nM, the koff was 9.1e-06 s⁻¹ and the kon was found to be 65500 M⁻¹ s⁻¹.

B15: E9-SE7 (antibody, V domains shown)
VH: EVQLVESGGGLVQPGGSLRLSCAVSGGSISSSSYYWGWIRQAPGKGLEWIGDIYYTGSTYYNPSLKSRVTISVDTSKNSFYLQMNSLRAEDTAVYYCAREDVILRGGSDYWGQGTLVTVSS
VL: EYVLTQSPDFQSVTPKEKVTITCSGQRLGDKYASWYQQKPDQSPKLVIYEDSKRPSGVPSRFSGSNSGDDATLTINSLEAEDAATYYCQAWDRDTGVFGQGTKVEIKR
Molecule B15 displayed a dissociation constant Kd in assay [1] of 7.53 nM. This molecule also registered a concentration for a half-maximal effect (EC50) in assay [2] of 0.12 nM.

B16: E9-SE5 (antibody, V domains shown)
VH: EVQLQESGPGLVKPSETLSLTCTVSGGSISSSSYYWGWIRQPPGKGLEWIGDIYYTGSTYYNPSLKSRVTISVDTSKNQFSLKLSSVTAADTAVYYCAREDVILRGGSDYWGQGTLVTVSS
VL: EYVLTQSPDFQSVTPKEKVTITCSGQRLGDKYASWYQQKPDQSPKLVIYEDSKRPSGVPSRFSGSNSGDDATLTINSLEAEDAATYYCQAWDRDTGVFGQGTKVEIKR
On to B16, for which the Kd in assay [1] was determined as 6.7 nM. The molecule further showed an EC50 in assay [2] of 0.13 nM.

B17: E9-SE8 (antibody, V domains shown)
VH: EVQLQESGPGLVKPGETLSLTCTVSGGSISSSSYYWGWIRQAPGKGLEWIGDIYYTGSTYYNPSLKSRVTISVDTSKNQFYLKLSSVRAEDTAVYYCAREDVILRGGSDYWGQGTLVTVSS
VL: EYVLTQSPDFQSVTPKEKVTITCSGQRLGDKYASWYQQKPDQSPKLVIYEDSKRPSGVPSRFSGSNSGDDATLTINSLEAEDAATYYCQAWDRDTGVFGQGTKVEIKR
The molecule B17 came in with a Kd in assay [1] of 3.41 nM. The molecule further had a half-maximal effective concentration (EC50) in assay [2] of 0.14 nM.

B18: E9-SE2 (antibody, V domains shown)
VH: EVQLVESGGGLVQPGGSLRLSCAVSGGSISSSSYYWGWIRQAPGKGLEWIGDIYYTGSTYYNPSLKSRVTISVDTSKNSFYLQMNSLRAEDTAVYYCAREDVILRGGSDYWGQGTLVTVSS
VL: SYELTQPPSVSVSPGQTASITCSGQRLGDKYASWYQQKPGQSPVLVIYEDSKRPSGIPERFSGSNSGDTATLTISGTQPMDEADYYCQAWDRDTGVFGYGTRVTVLG
For B18, in assay [1], the dissociation constant Kd was 3.68 nM. The molecule further showed an EC50 in assay [2] of 0.14 nM.

B19: E9-SE1 (antibody, V domains shown)
VH: EVQLVESGGGLVQPGGSLRLSCAVSGGSISSSSYYWGWIRQAPGKGLEWIGDIYYTGSTYYNPSLKSRVTISVDTSKNSFYLQMNSLRAEDTAVYYCAREDVILRGGSDYWGQGTLVTVSS
VL: LYVLTQPPSVSVSPGQTASITCSGQRLGDKYASWYQQKPGQSPVLVIYEDSKRPSGIPERFSGSNSGDTATLTISGTQTMDEADYLCQAWDRDTGVFGGGTKVTVLG
The molecule B19 yielded a Kd in assay [1] of 5.42 nM. The molecule also returned an EC50 in assay [2] of 0.14 nM.
